Source: US20200277374A1 (Alector, published 2020)

Assays:
[1] = target: T1, human Siglec-7 expressed on human cells (primary monocytes, dendritic cells, macrophages, NK cells, … (human, UniProt Q9Y286 19-467)); test: FACS titration on primary human dendritic cells, donor 358, 4 C
T1 construct: Endogenous receptor on cells; also called Siglec-7 receptor
Experimental: Two Siglec-7 antibodies, 4E3 and 10B5, were titrated 2-fold for a 12-point curve with a concentration range of 6.67-0.00325 nM to assess binding and calculate half-maximal concentration (EC₅₀) for binding to primary human dendritic cells (FIG. 5B). Antibodies were serially diluted and incubated with cells in PBS with 1% BSA, 1 mM EDTA for 1 hour on ice (4° C.). Cells were pelleted and resuspended with goat anti-mouse secondary antibody conjugated with APC (BD Biosciences) at a 1:200 dilution in buffer. Secondary detection antibody was incubated for 30 minutes on ice (4° C.), then cells were washed 3 times in buffer before analyzing on a BD FACS Canto for APC MR. Data were analyzed with FlowJo Software (TreeStar).

Y50A = target: T2, Y50A (human, UniProt Q9Y286); test: flow cytometry on HEK-293T cells expressing the mutant; mean % of wild-type signal (range of duplicates)
T2 construct: clone of the siglec-7 mutation library; also called Siglec-7 Y50A

I72A = target: T3, I72A (human, UniProt Q9Y286); test: as above
T3 construct: clone of the siglec-7 mutation library; also called Siglec-7 I72A

W74A = target: T4, W74A (human, UniProt Q9Y286); test: as above
T4 construct: clone of the siglec-7 mutation library; also called Siglec-7 W74A

N81A = target: T5, N81A (human, UniProt Q9Y286); test: as above
T5 construct: clone of the siglec-7 mutation library; also called Siglec-7 N81A

T103A = target: T6, T103A (human, UniProt Q9Y286); test: as above
T6 construct: clone of the siglec-7 mutation library; also called Siglec-7 T103A

K104A = target: T7, K104A (human, UniProt Q9Y286); test: as above
T7 construct: clone of the siglec-7 mutation library; also called Siglec-7 K104A

M185A = target: T8, M185A (human, UniProt Q9Y286); test: as above
T8 construct: clone of the siglec-7 mutation library; also called Siglec-7 M185A

M30A = target: T9, M30A (human, UniProt Q9Y286); test: as above
T9 construct: clone of the siglec-7 mutation library; also called Siglec-7 M30A

V44A = target: T10, V44A (human, UniProt Q9Y286); test: as above
T10 construct: clone of the siglec-7 mutation library; also called Siglec-7 V44A

R45A = target: T11, R45A (human, UniProt Q9Y286); test: as above
T11 construct: clone of the siglec-7 mutation library; also called Siglec-7 R45A

S47A = target: T12, S47A (human, UniProt Q9Y286); test: as above
T12 construct: clone of the siglec-7 mutation library; also called Siglec-7 S47A

F48A = target: T13, F48A (human, UniProt Q9Y286); test: as above
T13 construct: clone of the siglec-7 mutation library; also called Siglec-7 F48A
T13 sequence (Q9Y286 19-467 F48A limits assumed): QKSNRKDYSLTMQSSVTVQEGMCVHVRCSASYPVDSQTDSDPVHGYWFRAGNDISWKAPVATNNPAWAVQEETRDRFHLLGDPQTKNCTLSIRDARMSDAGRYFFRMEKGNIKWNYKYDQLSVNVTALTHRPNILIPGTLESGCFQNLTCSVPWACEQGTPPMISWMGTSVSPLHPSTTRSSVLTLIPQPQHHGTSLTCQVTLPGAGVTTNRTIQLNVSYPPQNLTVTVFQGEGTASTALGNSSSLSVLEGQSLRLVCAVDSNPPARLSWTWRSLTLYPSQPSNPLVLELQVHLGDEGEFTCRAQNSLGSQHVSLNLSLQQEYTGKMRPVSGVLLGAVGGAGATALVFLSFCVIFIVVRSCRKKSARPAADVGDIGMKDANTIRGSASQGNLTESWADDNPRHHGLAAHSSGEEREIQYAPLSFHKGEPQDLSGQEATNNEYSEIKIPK

T11 sequence (Q9Y286 19-467 R45A limits assumed): as the sequence (Q9Y286 19-467 F48A limits assumed) above, with R27A, A30F counted along it
T8 sequence (Q9Y286 19-467 M185A limits assumed): as the sequence (Q9Y286 19-467 F48A limits assumed) above, with A30F, M167A counted along it
T4 sequence (Q9Y286 19-467 W74A limits assumed): as the sequence (Q9Y286 19-467 F48A limits assumed) above, with A30F, W56A counted along it
T7 sequence (Q9Y286 19-467 K104A limits assumed): as the sequence (Q9Y286 19-467 F48A limits assumed) above, with A30F, K86A counted along it
T1 sequence (Q9Y286 19-467): as the sequence (Q9Y286 19-467 F48A limits assumed) above, with A30F counted along it
T5 sequence (Q9Y286 19-467 N81A limits assumed): as the sequence (Q9Y286 19-467 F48A limits assumed) above, with A30F, N63A counted along it
T10 sequence (Q9Y286 19-467 V44A limits assumed): as the sequence (Q9Y286 19-467 F48A limits assumed) above, with V26A, A30F counted along it
T3 sequence (Q9Y286 19-467 I72A limits assumed): as the sequence (Q9Y286 19-467 F48A limits assumed) above, with A30F, I54A counted along it
T9 sequence (Q9Y286 19-467 M30A limits assumed): as the sequence (Q9Y286 19-467 F48A limits assumed) above, with M12A, A30F counted along it
T6 sequence (Q9Y286 19-467 T103A limits assumed): as the sequence (Q9Y286 19-467 F48A limits assumed) above, with A30F, T85A counted along it
T12 sequence (Q9Y286 19-467 S47A limits assumed): as the sequence (Q9Y286 19-467 F48A limits assumed) above, with S29A, A30F counted along it
T2 sequence (Q9Y286 19-467 Y50A limits assumed): as the sequence (Q9Y286 19-467 F48A limits assumed) above, with A30F, Y32A counted along it

B1: anti-Siglec-7 antibody 10B5 (antibody, V domains shown)
VH: QVHLQQSGPELVKPGASVKISCKASGYAFTNCWMNWVRQRPGKGLDWIGRIFPGNGHTNYSGKFKDKATLTEDKSSSTAYMQLSSLTSEDSAVYFCARDYSDYYFDYWGQGTTLTVSS
VL: DVQMTQTTSSLSASLGDRVTISCRASQDINTYLNWYQQKPDGTVKLLIYYTSRLHSGVPSRFSGSGSGTDYSLTISNLEQEDIATYFCQQGNTLPWTFGGGTKLEIK
notes: that light chain holds several Z and differs in its CDRs from S7-10B5.1 / 10B5L1; also called S7-10B5; mAb S7-10B5
EC50 [1]: 1.43 nM | Binding Reactivity (% WT) (Y50A): 108 % WT | Binding Reactivity (% WT) (I72A): 130 % WT | Binding Reactivity (% WT) (W74A): 101 % WT | Binding Reactivity (% WT) (N81A): 153 % WT | Binding Reactivity (% WT) (T103A): 96.3 % WT | Binding Reactivity (% WT) (K104A): 13.6 % WT | Binding Reactivity (% WT) (M185A): 29.1 % WT | Binding Reactivity (% WT) (M30A): 89.9 % WT | Binding Reactivity (% WT) (V44A): 93.9 % WT | Binding Reactivity (% WT) (R45A): 37.3 % WT | Binding Reactivity (% WT) (S47A): 81.7 % WT | Binding Reactivity (% WT) (F48A): 159 % WT
